{"source": "paper PMC6451123", "about": "“The G3-U70-independent tRNA recognition by human mitochondrial alanyl-tRNA synthetase” (Nucleic Acids Research, 2019)", "proteins": {"B1": {"name": "E. coli AlaRS (enzyme, UniProt P00957 1-876, looked up)", "chain": "MSKSTAEIRQAFLDFFHSKGHQVVASSSLVPHNDPTLLFTNAGMNQFKDVFLGLDKRNYSRATTSQRCVRAGGKHNDLENVGYTARHHTFFEMLGNFSFGDYFKHDAIQFAWELLTSEKWFALPKERLWVTVYESDDEAYEIWEKEVGIPRERIIRIGDNKGAPYASDNFWQMGDTGPCGPCTEIFYDHGDHIWGGPPGSPEEDGDRYIEIWNIVFMQFNRQADGTMEPLPKPSVDTGMGLERIAAVLQHVNSNYDIDLFRTLIQAVAKVTGATDLSNKSLRVIADHIRSCAFLIADGVMPSNENRGYVLRRIIRRAVRHGNMLGAKETFFYKLVGPLIDVMGSAGEDLKRQQAQVEQVLKTEEEQFARTLERGLALLDEELAKLSGDTLDGETAFRLYDTYGFPVDLTADVCRERNIKVDEAGFEAAMEEQRRRAREASGFGADYNAMIRVDSASEFKGYDHLELNGKVTALFVDGKAVDAINAGQEAVVVLDQTPFYAESGGQVGDKGELKGANFSFAVEDTQKYGQAIGHIGKLAAGSLKVGDAVQADVDEARRARIRLNHSATHLMHAALRQVLGTHVSQKGSLVNDKVLRFDFSHNEAMKPEEIRAVEDLVNTQIRRNLPIETNIMDLEAAKAKGAMALFGEKYDERVRVLSMGDFSTELCGGTHASRTGDIGLFRIISESGTAAGVRRIEAVTGEGAIATVHADSDRLSEVAHLLKGDSNNLADKVRSVLERTRQLEKELQQLKEQAAAQESANLSSKAIDVNGVKLLVSELSGVEPKMLRTMVDDLKNQLGSTIIVLATVVEGKVSLIAGVSKDVTDRVKAGELIGMVAQQVGGKGGGRPDMAQAGGTDAAALPAALASVKGWVSAKLQ", "notes": "Escherichia coli alanyl-tRNA synthetase; calculated molecular mass of 96 kDa; Construct, tags and host are not described; The calculated mass of 96 kDa would fit the whole protein; also called EcAlaRS; source: purified"}}, "target": "the molecule itself", "assay": "SEC; gel filtration of the purified enzyme; apparent molecular mass from the elution volumes of three standard proteins (apoferritin 443 kDa, yeast alcohol dehydrogenase 150 kDa, bovine serum albumin 66 kDa)", "data": [{"protein": "B1", "values": [{"measurement": "binding result", "result": "binds"}]}]}
